Experiments:
[1] = biological target: surface-immobilized biotinylated microtubules, Q2XVP4;Q767L7; test: fluorescence intensity of GFP-tagged MAP9-MTBD on surface-immobilized MTs (fluorescence microscopy); details: 100 nM MAP9 construct (stated for panel h and Extended Data Fig. 6b); parent: est. 0.72; read off a plot
[2] = biological target: surface-immobilized biotinylated microtubules, Q2XVP4;Q767L7; test: fluorescence intensity of GFP-tagged MAP9 on MTs (fluorescence microscopy); details: 100 mM salt (stated for panel d); parent: est. 2.8; read off a plot

For “MAP9-MTBD (Human MAP9 (302–647)::GFP::strepII) (from UniProt Q49MG5) Y429A; W432A; K436A; F473A; W476A; K480A”, the response [1] was 0.05 a.u.

With “MAP9-MTBD (Human MAP9 (302–647)::GFP::strepII) (from UniProt Q49MG5) LHEMHRIK>LAEMHAIK; …>…; LKEKNRK>LAEKNAK; FKQKEKEK>FAQKEAEK; ERIERKQ>EAIERAQ” the response [2] was 2.8 a.u.
